US20210284691A1, “CBX8 CHROMDOMAIN INHIBITORS AND THE USES THEREOF” (Purdue Research Foundation, priority 2019, published 2021)
Square brackets hold non-standard residues; d marks the D form. Primed or numbered codes have the meaning given here. Ends that are not written are not given here. * marks the point of attachment. triazole = triazole formed by click reaction joining the C-terminal propargylamide to 5/6-carboxyfluorescein; Isoxazole3carbonyl(5-Me) = Cc1cc(C(=O)*)no1; Tyr(3-Cl) = N[C@@H](Cc1ccc(O)c(Cl)c1)C(=O)O; Lys(Me3) = C[N+](C)(C)CCCC[C@H](N)C(=O)O; Lys(Et2) = CCN(CC)CCCC[C@H](N)C(=O)O; triazole″ = not defined here; PEG4′ = not defined here; NH(propargyl) = C#CCN*

Assays:
[1] = biological target: CBX2 chromodomain (CBX2 ChD), N-terminal His6-tagged recombinant protein (UniProt Q14781); test: competitive fluorescence polarization (FP) assay, displacement of the FITC-labelled probe
[2] = biological target: CBX4 chromodomain (CBX4 ChD), N-terminal His6-tagged recombinant protein (UniProt O00257); test: as above
[3] = biological target: CBX7 chromodomain (CBX7 ChD), N-terminal His6-tagged recombinant protein (UniProt O95931); test: competitive fluorescence polarization, displacement of FITC-labelled probe
[4] = biological target: CBX8 chromodomain (CBX8 ChD), N-terminal His6-tagged recombinant protein (UniProt Q9HC52); test: as above
[5] = biological target: CBX6 chromodomain (CBX6 ChD), N-terminal His6-tagged recombinant protein (UniProt O95503); test: as above
[6] = biological target: T1, CBX8 chromodomain (CBX8 ChD), N-terminal His6-tagged recombinant protein (UniProt Q9HC52 8-61, limits assumed); test: competitive fluorescence polarization (FP) assay, displacement of the FITC-labelled probe
T1 construct: domain: chromodomain; not shown: N-terminal His6 tag
T1 sequence (looked up): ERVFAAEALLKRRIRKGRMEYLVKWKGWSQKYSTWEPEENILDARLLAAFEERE

[7] = biological target: T2, CBX7 chromodomain (CBX7 ChD), N-terminal His6-tagged recombinant protein (UniProt O95931 8-62, limits assumed); test: as above
T2 construct: domain: chromodomain; not shown: N-terminal His6 tag
T2 sequence (looked up): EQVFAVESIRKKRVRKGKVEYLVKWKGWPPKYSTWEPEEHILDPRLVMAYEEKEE

[8] = biological target: T3, CBX4 chromodomain (CBX4 ChD), N-terminal His6-tagged recombinant protein (UniProt O00257 8-65, limits assumed); test: as above
T3 construct: domain: chromodomain; not shown: N-terminal His6 tag
T3 sequence (looked up): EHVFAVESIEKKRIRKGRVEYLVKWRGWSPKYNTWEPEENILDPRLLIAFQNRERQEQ

[9] = biological target: T4, CBX6 chromodomain (CBX6 ChD), N-terminal His6-tagged recombinant protein (UniProt O95503 8-65, limits assumed); test: as above
T4 construct: domain: chromodomain; not shown: N-terminal His6 tag
T4 sequence (looked up): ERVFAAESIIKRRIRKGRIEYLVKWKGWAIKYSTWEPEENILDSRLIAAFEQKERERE

[10] = biological target: T5, CBX2 chromodomain (CBX2 ChD), N-terminal His6-tagged recombinant protein (UniProt Q14781 9-66, limits assumed); test: as above
T5 construct: domain: chromodomain; Expressed in E. coli and purified on Ni-NTA; not shown: N-terminal His6 tag
T5 sequence (looked up): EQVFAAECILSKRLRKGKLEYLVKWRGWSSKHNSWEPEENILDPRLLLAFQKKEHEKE

[11] = biological target: T6, endogenous CBX7 (from cells / lysate) (human, UniProt O95931 1-251); test: chemoprecipitation from HEK293T nuclear lysate, immunoblot
T6 sequence (looked up): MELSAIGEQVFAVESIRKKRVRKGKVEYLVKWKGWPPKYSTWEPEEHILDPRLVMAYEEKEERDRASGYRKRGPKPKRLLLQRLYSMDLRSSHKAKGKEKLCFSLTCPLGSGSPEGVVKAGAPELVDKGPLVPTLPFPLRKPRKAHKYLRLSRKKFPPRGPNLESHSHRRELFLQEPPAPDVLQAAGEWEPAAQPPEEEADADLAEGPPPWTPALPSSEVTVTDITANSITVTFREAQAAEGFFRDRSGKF

[12] = biological target: T7, endogenous CBX4 (HEK293T nuclear lysate) (human, UniProt O00257 1-560, limits assumed); test: as above
T7 construct: Meant by 'any other paralogs' in the pulldown text
T7 sequence (looked up): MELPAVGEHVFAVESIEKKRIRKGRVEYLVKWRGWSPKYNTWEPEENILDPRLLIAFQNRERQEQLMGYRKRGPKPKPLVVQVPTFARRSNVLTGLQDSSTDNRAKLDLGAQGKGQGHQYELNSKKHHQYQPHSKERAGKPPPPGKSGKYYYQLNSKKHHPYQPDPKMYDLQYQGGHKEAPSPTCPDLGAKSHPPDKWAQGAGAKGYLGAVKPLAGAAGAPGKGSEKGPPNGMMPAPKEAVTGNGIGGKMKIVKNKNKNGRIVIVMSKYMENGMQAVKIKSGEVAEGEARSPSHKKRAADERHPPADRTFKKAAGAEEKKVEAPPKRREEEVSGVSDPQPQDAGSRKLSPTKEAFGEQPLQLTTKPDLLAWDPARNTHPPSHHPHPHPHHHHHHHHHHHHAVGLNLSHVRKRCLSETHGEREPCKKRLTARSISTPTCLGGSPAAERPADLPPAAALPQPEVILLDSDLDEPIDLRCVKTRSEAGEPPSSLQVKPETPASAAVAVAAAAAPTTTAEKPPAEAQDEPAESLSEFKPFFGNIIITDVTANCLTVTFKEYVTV

[13] = biological target: T8, BRG1 (endogenous, HEK293T nuclear lysate) (human, UniProt P51532 1-1647); test: as above
T8 construct: Non-specific control of the chemoprecipitation
T8 sequence (P51532 whole entry): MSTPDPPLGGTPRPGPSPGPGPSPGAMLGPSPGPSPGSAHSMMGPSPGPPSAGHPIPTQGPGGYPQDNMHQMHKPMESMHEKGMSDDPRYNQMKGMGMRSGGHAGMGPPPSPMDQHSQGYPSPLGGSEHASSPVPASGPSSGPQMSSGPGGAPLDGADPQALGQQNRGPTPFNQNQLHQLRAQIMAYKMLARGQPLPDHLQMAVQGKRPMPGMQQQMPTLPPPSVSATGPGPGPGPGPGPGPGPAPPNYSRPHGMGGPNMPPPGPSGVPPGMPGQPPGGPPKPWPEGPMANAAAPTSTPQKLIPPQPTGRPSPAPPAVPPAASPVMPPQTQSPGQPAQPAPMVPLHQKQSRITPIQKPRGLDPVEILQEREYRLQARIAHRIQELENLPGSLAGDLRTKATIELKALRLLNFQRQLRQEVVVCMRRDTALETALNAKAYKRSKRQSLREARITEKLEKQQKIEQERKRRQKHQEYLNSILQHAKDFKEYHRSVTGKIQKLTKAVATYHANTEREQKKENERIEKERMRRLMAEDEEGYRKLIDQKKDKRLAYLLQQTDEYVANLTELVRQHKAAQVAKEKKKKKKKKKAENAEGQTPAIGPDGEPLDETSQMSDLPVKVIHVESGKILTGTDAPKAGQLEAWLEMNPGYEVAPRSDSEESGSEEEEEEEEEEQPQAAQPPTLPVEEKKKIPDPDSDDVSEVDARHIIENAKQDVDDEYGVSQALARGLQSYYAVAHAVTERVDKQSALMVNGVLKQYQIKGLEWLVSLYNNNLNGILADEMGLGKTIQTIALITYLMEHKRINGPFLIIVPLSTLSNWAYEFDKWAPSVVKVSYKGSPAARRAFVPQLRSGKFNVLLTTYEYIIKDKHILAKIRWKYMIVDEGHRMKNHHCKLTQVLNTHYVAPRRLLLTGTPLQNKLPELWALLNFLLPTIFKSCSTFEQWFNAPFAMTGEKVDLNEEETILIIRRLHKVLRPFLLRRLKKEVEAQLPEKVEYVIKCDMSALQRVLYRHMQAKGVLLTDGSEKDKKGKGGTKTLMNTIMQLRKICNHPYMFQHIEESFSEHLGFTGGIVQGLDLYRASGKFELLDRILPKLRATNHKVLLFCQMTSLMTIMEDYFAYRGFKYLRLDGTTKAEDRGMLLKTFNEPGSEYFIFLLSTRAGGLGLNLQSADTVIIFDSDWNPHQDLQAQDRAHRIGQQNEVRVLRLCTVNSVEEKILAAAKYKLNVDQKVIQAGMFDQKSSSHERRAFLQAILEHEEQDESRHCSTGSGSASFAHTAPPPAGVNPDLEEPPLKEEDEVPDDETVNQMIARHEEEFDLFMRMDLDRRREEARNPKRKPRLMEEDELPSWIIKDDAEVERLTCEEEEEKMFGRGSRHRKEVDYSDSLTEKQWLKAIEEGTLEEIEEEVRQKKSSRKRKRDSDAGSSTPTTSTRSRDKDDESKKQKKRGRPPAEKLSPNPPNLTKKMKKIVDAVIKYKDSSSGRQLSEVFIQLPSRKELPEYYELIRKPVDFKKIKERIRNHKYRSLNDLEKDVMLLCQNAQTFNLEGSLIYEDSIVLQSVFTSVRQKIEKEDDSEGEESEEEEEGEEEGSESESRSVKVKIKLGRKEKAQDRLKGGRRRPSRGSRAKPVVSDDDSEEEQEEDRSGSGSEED

[14] = biological target: T9, endogenous CBX6 (HEK293T nuclear lysate) (human, UniProt O95503 1-412); test: as above
T9 sequence (looked up): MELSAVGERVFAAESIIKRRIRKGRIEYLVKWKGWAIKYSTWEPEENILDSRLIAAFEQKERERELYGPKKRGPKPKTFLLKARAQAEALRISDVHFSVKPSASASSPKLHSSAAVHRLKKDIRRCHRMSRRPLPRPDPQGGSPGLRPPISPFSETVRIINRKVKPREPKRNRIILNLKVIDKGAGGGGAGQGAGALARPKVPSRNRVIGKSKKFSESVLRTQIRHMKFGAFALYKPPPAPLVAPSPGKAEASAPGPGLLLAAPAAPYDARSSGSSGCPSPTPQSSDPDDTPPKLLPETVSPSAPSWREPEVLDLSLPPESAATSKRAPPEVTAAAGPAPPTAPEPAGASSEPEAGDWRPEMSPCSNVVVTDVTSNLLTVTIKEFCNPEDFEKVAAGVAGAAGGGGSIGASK

[15] = biological target: T2, CBX7 chromodomain (CBX7 ChD), …; test: direct fluorescence titration of KED97L-FL; reference CBX8 ChD
[16] = biological target: T1, CBX8 chromodomain (CBX8 ChD), …; test: direct fluorescence polarization, FAM-labelled ligand at 100 nM, ChD titrated
[17] = biological target: T2, CBX7 chromodomain (CBX7 ChD), …; test: as above
[18] = biological target: T3, CBX4 chromodomain (CBX4 ChD), …; test: as above
[19] = biological target: T4, CBX6 chromodomain (CBX6 ChD), …; test: as above
[20] = biological target: T5, CBX2 chromodomain (CBX2 ChD), …; test: as above
[21] = biological target: T5, CBX2 chromodomain (CBX2 ChD), …; test: Thermal Shift Assay of the non-derivatized ligand
[22] = biological target: T1, CBX8 chromodomain (CBX8 ChD), …; test: direct fluorescence polarization, fluorescein-conjugated ligand
[23] = biological target: T4, CBX6 chromodomain (CBX6 ChD), …; test: as above
[24] = biological target: T1, CBX8 chromodomain (CBX8 ChD), …; test: direct fluorescence polarization; reference CBX2 ChD; CBX8 is the closest paralog by Table 3
[25] = biological target: T1, CBX8 chromodomain (CBX8 ChD), …; test: method not given

Binder: [Tyr(3-Cl)]PIK(trimethyl)S-NH2 (also: N-terminal acylation, acyl group not given here) [KED98 (PP)]
- IC50 [1]: 46 µM
- IC50 [2]: 173 µM
- IC50 [3]: 83 µM
- IC50 [4]: 14 µM
- IC50 [5]: 34 µM

B1: KED97 (peptide)
peptide: {Isoxazole3carbonyl(5-Me)}-[Tyr(3-Cl)]VI[Lys(Me3)]S-NH2
notes: Final PSL1 ligand with combined synthons
- IC50 [6]: 9.5 µM
- IC50 [7]: 60 µM
- IC50 [8]: 49 µM
- IC50 [9]: 4.4 µM
- IC50 [10]: 21 µM

Binder: PI[Lys(Et2)]S-{PEG4′-biotin} (also: Pro1 alpha-amino modified, group not given here, non-natural monomers) [SW2_152F-B (biotinylated SW2_152F)]
- binding result [11]: no binding
- binding result [12]: binds
- binding result [13]: no binding
- binding result [14]: no binding

B2: KED97L-FL (peptide)
peptide: {Isoxazole3carbonyl(5-Me)}-[Tyr(3-Cl)]VI[Lys(Et2)]S-{NH(propargyl)-triazole-5/6‑FAM}
notes: also called 97L fluorescein derivative; KED97L (as measured)
- selectivity for CBX8 ChD over CBX7 ChD (fold) [15]: 20 fold
- Kd [16]: 0.24 µM
- Kd [17]: 4.7 µM
- Kd [18]: 2.7 µM
- Kd [19]: 0.26 µM
- Kd [20]: 1.1 µM

B3: SW2_152F (peptide)
peptide: PI[Lys(Et2)]S-{NH(propargyl)}
modifications: also: Pro1 alpha-amino modified, group not given here, non-natural monomers
notes: Non-derivatized ligand, used in the Thermal Shift Assay and in cells; also called CBX2i
- Kd [21]: 0.11 µM

B4: SW2_152F-FL (library#77) (peptide)
peptide: PI[Lys(Et2)]S
modifications: not fully specified (C-terminus); also: Pro1 alpha-amino modified, group not given here (non-natural monomer)
notes: also called fluorescein-conjugated SW2_152F
- Kd [22]: 1.9 µM
- Kd [23]: 9 µM
- selectivity for CBX2 over the other paralogs (fold) [24]: ≥ 24 fold

Binder: {Isoxazole3carbonyl(5-Me)}-[Tyr(3-Cl)]VI[Lys(Et2)]S-{NH(propargyl)-triazole″-PEG2‑chloroalkane} (reading uncertain) [KED97L-CA (chloroalkane-modified KED97L)]
- Kd [25]: 0.4 µM
